Where “and” joins values, the source holds several entries; their conditions need not be identical. Identical values can stand only once. Values belong to the binder of their own block, whether it stands above or below them.
Legend:
Conditions in all cases: scale: KASH6 per SUN1
[1] = molecular target: SUN domain of human SUN1 (amino-acids 616-812) (human); assay: SEC-MALS
[2] = molecular target: SUN domain of human SUN1 (amino-acids 616-812) (human); assay: SEC-MALS; remark: listed apart in the source
[3] = molecular target: SUN domain of human SUN1 (amino-acids 616-812) (human); assay: crystal structure
[4] = molecular target: SUN domain of human SUN1 (amino-acids 616-812) (human); assay: SEC-MALS; remark: listed apart in the source

stoichiometry N [1]: 1 | stoichiometry N [2]: 0.67 and 1 | stoichiometry N [3]: 0.67
B1: KASH domain of human JAW1/LRMP (amino-acids 515-555) (peptide)
chain: TGQLFQKSVDAAPTQQEDSWTSLEHILWPFTRLRHNGPPPV

stoichiometry N [4]: 0.67 | stoichiometry N [1]: 1
B2: KASH6 core (human JAW1/LRMP amino-acids 531-555) (peptide)
chain: EDSWTSLEHILWPFTRLRHNGPPPV

From doi:10.1101/2023.06.05.543797
